Here are results for six molecules from US20210395392A1 (Bristol-Myers Squibb, published 2021).

A value given as a limit tells only on which side of the number the result lay.

The target of test [1] is T1, Mouse MerTK on mMerTK-expressing cells (mouse, UniProt Q60805 19-994).
T1 sequence: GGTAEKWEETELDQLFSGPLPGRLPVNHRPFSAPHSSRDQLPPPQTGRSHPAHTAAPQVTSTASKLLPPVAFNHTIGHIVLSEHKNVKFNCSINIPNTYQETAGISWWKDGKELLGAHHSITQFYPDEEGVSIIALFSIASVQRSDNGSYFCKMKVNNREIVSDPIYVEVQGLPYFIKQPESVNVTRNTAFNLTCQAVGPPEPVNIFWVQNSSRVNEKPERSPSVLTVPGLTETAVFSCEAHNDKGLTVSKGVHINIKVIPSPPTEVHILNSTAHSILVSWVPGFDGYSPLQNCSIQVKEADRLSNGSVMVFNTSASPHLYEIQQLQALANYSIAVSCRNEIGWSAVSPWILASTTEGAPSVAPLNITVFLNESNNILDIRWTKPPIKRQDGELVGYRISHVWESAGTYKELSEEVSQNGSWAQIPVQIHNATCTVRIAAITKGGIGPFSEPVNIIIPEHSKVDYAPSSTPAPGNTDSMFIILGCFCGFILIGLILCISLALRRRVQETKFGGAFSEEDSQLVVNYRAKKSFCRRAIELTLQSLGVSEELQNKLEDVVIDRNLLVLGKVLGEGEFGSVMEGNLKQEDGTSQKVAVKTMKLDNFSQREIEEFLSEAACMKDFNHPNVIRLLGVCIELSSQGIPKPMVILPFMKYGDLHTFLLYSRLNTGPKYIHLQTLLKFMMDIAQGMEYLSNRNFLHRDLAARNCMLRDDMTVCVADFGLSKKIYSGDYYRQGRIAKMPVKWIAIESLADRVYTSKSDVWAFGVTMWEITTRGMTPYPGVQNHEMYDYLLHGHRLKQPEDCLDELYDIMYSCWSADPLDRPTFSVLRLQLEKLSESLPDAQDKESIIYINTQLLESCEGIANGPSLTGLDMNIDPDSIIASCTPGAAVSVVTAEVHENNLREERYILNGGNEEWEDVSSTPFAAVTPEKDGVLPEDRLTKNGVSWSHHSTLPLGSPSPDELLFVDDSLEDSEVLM
In words: cell-based or functional assay.

The target of test [2] is T1, Mouse MerTK on mMerTK-expressing cells. In words: binding to mMerTK-expressing cells; SPR not run.
In test [3] the target is T2, Recombinant soluble extracellular domain of mouse MerTK (mouse, UniProt Q60805 19-497).
T2 construct: SPR analyte; also called mMerTK
T2 sequence: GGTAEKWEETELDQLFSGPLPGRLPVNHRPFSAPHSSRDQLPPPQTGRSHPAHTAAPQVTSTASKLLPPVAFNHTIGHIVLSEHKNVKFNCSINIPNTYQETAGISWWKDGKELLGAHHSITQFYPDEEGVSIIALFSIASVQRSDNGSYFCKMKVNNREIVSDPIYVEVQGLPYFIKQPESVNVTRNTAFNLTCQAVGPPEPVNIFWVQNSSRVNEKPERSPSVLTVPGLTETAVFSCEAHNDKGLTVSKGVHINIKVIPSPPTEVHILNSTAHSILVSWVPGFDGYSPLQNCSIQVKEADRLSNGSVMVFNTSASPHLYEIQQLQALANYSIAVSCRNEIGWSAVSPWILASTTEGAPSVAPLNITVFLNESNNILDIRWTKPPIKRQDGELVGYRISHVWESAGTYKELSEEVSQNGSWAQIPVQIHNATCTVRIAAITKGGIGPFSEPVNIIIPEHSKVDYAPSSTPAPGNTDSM
In words: summary sentence of the description; assay not named.

B1: HuMAb 1B4 (antibody, human IgG1, kappa, V domains shown)
VH: QLQLQESGPGLVKPSETLSLTCAVSGYSISSGNYWGWIRQSPGKGLEWIGSVDHSGSTYYSPSLKSRVTISVDTSKNQFSLKLNSVTAADTADYYCARNTMIRGVMDWFDPWGQGTLVTVSS
VL: AIQLTQSPSSLSASVGDRVTITCRASQGISSALAWYQQKPGKAPKVLIYDASSLESGVPSRFSGSGSGTDFTLTISSLQPEDFATYYCQQFRSYPTFGQGTKVEIKR
notes: Human anti-hMerTK mAb, Bin 1
For B1, the “Signaling Assay, mMerTK with Gas6, pSTAT1 IC50 (nM)” value in test [1] was over 100 nM. For the same molecule, the binding result in test [2] and in test [3] was “no binding” each time.

B2: HuMAb 22I16 (antibody, human IgG1, kappa, V domains shown)
VH: EVQLVESGGGLVQPGGSLRLSCAASGFTFSSYSMNWVRQAPGKGLEWVSYIISGSDTIFYADSVKGRFTISRDNAKNSLYLQMNSLRDEDTAVYYCARDETVVRGVINYFDYWGQGTLVTVSS
VL: AIQLTQSPSSLSASVGDRVTITCRSSQGISSALAWYQQKPGKAPKLLIYDASSLESGVPSRFSGSGSGTDFTLTISSLQPEDFATYYCQQFISYPTFGQGTRLEIKR
notes: Human anti-hMerTK mAb, Bin 1; also called 22116
Turning to B2, the binding result in test [2] and in test [3] was “no binding” in each case.

B3: HuMAb 25J60 (antibody, human IgG1, kappa, V domains shown)
VH: QVQLVQSGAEVKKPGASVKVSCKTSGNTQIRYYMYWVRQAPGQGLEWMGILNPNQDQTTYAQKFQGRVTMTRDTSTSTVYMELSSLRSEDTAVYYCATTYRYYMDVWGQGTTVTVSS
VL: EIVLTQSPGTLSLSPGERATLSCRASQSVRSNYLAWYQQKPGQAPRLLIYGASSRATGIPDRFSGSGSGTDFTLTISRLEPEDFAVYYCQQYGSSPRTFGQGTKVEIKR
notes: Human anti-hMerTK mAb, Bin 2, derived from HuMAb 25B10 by optimization
Turning to B3, the binding result in test [2] and in test [3] was “no binding” in each case.

B4: HuMAb 25J80 (antibody, human IgG1, kappa, V domains shown)
VH: QVQLVQSGAEVKKPGASVKVSCKTSGRTFIRYYMHWVRQAPGQGLEWMGIIWPNGDQTTYAQKFQGRVTMTRDTSTSTVYMELSSLRSEDTAVYYCATTYKYAMDVWGQGTTVTVSS
VL: EIVLTQSPGTLSLSPGERATLSCRASQSVRSNYLAWYQQKPGQAPRLLIYGASSRATGIPDRFSGSGSGTDFTLTISRLEPEDFAVYYCQQYESPPRTFGQGTKVEIKR
notes: as for B3
As to B4, the binding result in test [2] and in test [3] was “no binding” each time.

B5: HuMAb 8N42 (antibody, V domains shown)
VH: QVQLQQWGAGLLKPSETLSLTCAVYGGSFSIYYWSWIRQPPGKGLELIGEINDEGNTNYNPSLKSRVTISVDTSKNQFSLKLSSVTAADTAVYYCARGGTGDIHAFDIWGQGTMVTVSS
VL: DIQMTQSPSSLSASVGDRVTITCRASQGISKWLAWYQQKPEKAPKSLIYAASSLQSGVPSRFSGSGSGTDFTLTISSLQPEDFATYYCQQYNSYPWTFGQGTKVEIKR
notes: Human anti-hMerTK mAb, Bin 1
B5: the binding result in test [2] and in test [3] was “no binding” in each case.

B6: HuMAb 4K10 (antibody, human IgG1, kappa, V domains shown)
VH: QVQLQQWGAGLLKPSETLSLTCAVYGGSFSGYYWSWLRQPPGKGLEWIGEISHSGSTNYNPSLKSRVTISVDTSKNQFSLKLSSVTAADTAVYYCARALSRYWYFDLWGRGTLVTVSS
VL: EIVLTQSPATLSLSPGERATLSCRASQSASNYLAWYQQKPGQAPRLLIYDASNRATGIPARFSGSGSGTDFTLTISSLEPEDFAVYYCYQRSQWPISFGQGTRLEIKR
notes: Human anti-hMerTK mAb, Bin 3
Consider B6, for which the binding result in test [2] and in test [3] was “no binding” throughout.
